Reference: paper PMC2912431

Columns and labels:
[1] = biological target: Klebsiella aerogenes UreE (Klebsiella aerogenes); test: SEC
[2] = biological target: C28A UreGStr (Klebsiella aerogenes) (UniProt P18319); test: SEC

Substance	stoichiometry N [1]	stoichiometry N [2]
Klebsiella aerogenes UreE (natural protein)	2	
C28A UreGStr (from UniProt P18319 1-205) (natural protein)		2
